Consider two molecules from patent US20050096290, “5'-and 3'-capped aptamers and uses therefor” (published 2005).

In data set [1] the target is T1, VEGF165 (vascular endothelial growth factor A, 165 isoform) (Homo sapiens, UniProt P15692-4 P15692-4:27-191). Kind of data set: competition; biotinylated competitor binds immobilized VEGF165 and is displaced by test aptamer; printed as SEQ ID NO:1 in text but matches listing SEQ 11. The note with it: tags: recombinant human VEGF165, immobilized on 96-well plate; chain copies: 2 inferred; label: two 5' biotin moieties (XX). The method, then:
(§1) The ability of anti-VEGF aptamers to bind to human vascular endothelial growth factor (VEGF) was determined using a competitive binding ELISA-like assay. In this assay, recombinant VEGF₁₆₅ is bound to the wells of a 96-well plate (Quadra 96 Plus). Following blocking of nonspecific reactive sites on the plate, a matrix of the test aptamer and a biotinylated competitor, the DNA oligonucleotide shown below, were added.
(§2) “X” represent a biotin moiety in the above representation. Both the biotinylated competitor and the test aptamer compete for binding sites on the immobilized VEGF. Following the removal of the unbound biotinylated competitor and unbound test aptamer, the amount of biotinylated competitor remaining is detected using a chemiluminescence reaction. The entire plate was immediately read on a luminometer (Victor 2). The amount of bound biotinylated competitor is inversely related to the amount of bound test aptamer.

Data set [2] addresses T1, VEGF165 (vascular endothelial growth …). Put plainly: competition; competitive ELISA-like plate assay against biotinylated DNA competitor on immobilized VEGF165, chemiluminescence readout. As to conditions: tags: recombinant human VEGF165, immobilized on 96-well plate; chain copies: 2 inferred. The method, then: as §1, §2

T1 sequence (P15692 other isoform, or with tags, fused parts or gaps): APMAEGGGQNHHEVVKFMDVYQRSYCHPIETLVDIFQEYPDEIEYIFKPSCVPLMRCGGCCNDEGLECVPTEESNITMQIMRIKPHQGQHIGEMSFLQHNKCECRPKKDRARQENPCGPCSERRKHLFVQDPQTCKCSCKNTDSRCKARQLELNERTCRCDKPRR

On to CCCGTCTTCCAGACAAGAGTGCAGGG (ssDNA) [biotinylated DNA competitor oligonucleotide], for which the binding result in data set [1] is “binds”.

B1: Oligonucleotide 1 (5'-5' and 3'-3' inverted dT capped anti-VEGF aptamer) (ssRNA)
RNA: CGGAAUCAGUGAAUGCUUAUACAUCCG
modifications: 2'-F on all C and U; 2'-OMe on all G and on A except A4 and A5 (ribo); 5'-5' inverted dT cap; 3'-3' inverted dT cap
Broadly, the IC50 is the concentration at which inhibition is half-maximal. Consider B1, for which, in data set [2], the IC50 came to 3.28 nM.
